Measured values reported in PMC3173040 (Nature structural & molecular biology, 2011).

Target: the molecule itself
Test: SEC-MALS

B1: VopL fragment 130-484 (3W-VCD) (domain or fragment, Vibrio parahaemolyticus, UniProt Q87GE5 130-484, looked up)
chain: SVNEDHSKLMEQIRQGVKLKSATKSLSADKSSADAHSKLMEELLTGGRKLKKVATSDIPAPPPLPSASTSKSPDSRNALLSEIAGFSKDRLRKTGSLETLNSSQSKDKESFEPTTHERLLSEDLFKQSPKLSEQELDELANNLADYLFQAADIDWHQVISEKTRGLTTEEMAKSEHRYVQAFCREILKYPDCYKSADVASPESPKSGGGSVIDVALKRLQTGRERLFTTTDEKGNRELKKGDAILESAINAARMAISTEEKNTILSNNVKSATFEVFCELPCMDGFAEQNGKTAFYALRAGFYSAFKNTDTAKQDITKFMKDNLQAGFSGYSYQGLTNRVAQLEAQLAALSAKLS
stoichiometry N: 2
